Measurements from patent US20250122303A1, “TREATMENT AND PREVENTION OF CANCER USING HER3 ANTIGEN-BINDING MOLECULES” (Hummingbird Bioscience Pte. Ltd., priority 2021, published 2025).

Experiments:
hHER3 = hHER3 (Homo sapiens, UniProt P21860); test: BLI binding to HER3 in absence of NRG1 ('closed' conformation)
Description: (§1) In further experiments, anti-HER3 antibodies were analysed in order to determine the affinity of binding to human HER3 in the context of a human HER3:human NRG1 complex (that is, HER3 provided in the ligand-bound, ‘open’ conformation), as compared to the affinity of binding to human HER3 in the absence of NRG1 complex (that is, HER3 provided in the unbound, ‘closed’ conformation).
(§2) Binding of anti-HER3 antibodies to human HER3 was evaluated by BLI. Briefly, anti-Human IgG Capture (AHC) sensors (ForteBio) were loaded with anti-HER3 IgG antibodies (25 nM). Kinetic measurements were performed in absence or presence of NRG1. NRG1 was used at 1:1 molar ratio with HER3 wherein the complex was allowed to form at RT for 2 h. His-tagged human HER3 or HER3-NRG1 complexes were loaded to antibody coated AHC sensors at different concentrations for 120 s, followed by a 120 s dissociation time. All measurements were performed at 25° C. with agitation at 1000 rpm. Sensorgrams were referenced for buffer effects and then analyzed using the Octet QK384-software (ForteBio). Kinetic responses were globally fitted using a one-site binding model to obtain values for association (Kon), dissociation (Koff) rate constants and the equilibrium dissociation constant (KD).

[1] = cited from earlier work
[2] = clinical, literature, cited from earlier work
[3] = molecular target: T1, human HER3 (HEK293 HER3 O/E cells) (Homo sapiens, UniProt P21860); test: Cell surface antigen-binding by flow cytometry
T1 construct: expressed in transfected cells; host or cells: HEK293
Description: The cells were washed thrice with FACS buffer (PBS with 5 mM EDTA and 0.5% BSA) and resuspended in FITC-conjugated anti-FC antibody (Invitrogen, USA) for 40 min at 2-8° C. Cells were washed again and resuspended in 200 μL of FACS flow buffer (PBS with 5 mM EDTA) for flow cytometric analysis using MACSQuant 10 (Miltenyi Biotec, Germany). After acquisition, all raw data were analyzed using Flowlogic software. Cells were gated using forward and side scatter profile percentage of positive cells was determined for native and overexpressing cell populations.
The cells were washed with buffer (PBS with 2 mM EDTA and 0.5% BSA) and resuspended in FITC-conjugated anti-FC antibody (Invitrogen, USA) at 10 μg/ml for 20 min at 4° C. Cells were washed again and resuspended in 200 μL of FACS flow buffer (PBS with 5 mM EDTA) for flow cytometric analysis using MACSQuant 10 (Miltenyi Biotec, Germany). Unstained WT and transfected HEK293 cells were included in the analysis as negative controls. After acquisition, all raw data were analyzed using Flowlogic software. Cells were gated using forward and side scatter profile percentage of positive cells was determined for native and overexpressing cell populations.

[4] = molecular target: human HER3:human NRG1 complex (Homo sapiens, UniProt P21860); test: BLI binding to HER3-NRG1 complex ('open' conformation); details: presence of NRG1 (1:1 molar ratio)
Description: as §1, §2

[5] = test system: HEK293 HER3, HCC95, N87 and OVCAR8 cells; test: Antibody internalisation, pHrodo imaging; format: cell-based, human; details: 24 hours
Description: Briefly, 100,000 HEK293 cells engineered to express HER3, HCC95, N87 or OVCAR8 cells were seeded in wells of 96-well tissue culture plates and cultured overnight at 37° C. in 5% CO2. […] The cells in culture were imaged every 30 min for 24 hours, in 4 different fields of each well. The maximum signal intensity in the FITC channel of each field was quantified at 24 hours.

Substance	affinity of binding to human HER3 (hHER3)	gastrointestinal toxicity DLTs ([1]; human, in vivo)	hypokalaemia and hypomagnesemia DLTs ([1]; in the presence of diarrhoea)	Dose where Saturating PK was observed [2]	T½ (terminal half life) [2] [h]	Cmax (μg/ml) normalised to per mg/kg dosed [2] [µg/mL]	extent of binding to human HER3-expressing cells ([3]; 10 μg/ml antibody)	extent of binding to human HER3-expressing cells ([3]; 20 μg/ml antibody)	affinity of binding to human HER3 [4]	internalization ([5]; HEK293 cells overexpressing HER3, 120 nM)	internalization ([5]; OvCar8 cells, 120 nM)
LJM716: anti-HER3 antibody binding domains II and IV, locks HER3 in inactive conformation (Garner et al.) [reference compound]	subpicomolar affinity	DLTs were reported	DLTs were reported	10 to 40 mg/kg	220 to 336	19 to 22	bind to human HER3-expressing cells to a similar extent	bind to human HER3-expressing cells to a similar extent	dramatically reduced	significant internalization	Modest to moderate internalization
RG7116				400 to 2000 mg	220 to 288	24 to 41					
